Source: IntAct's records for PubMed 25960410

B1: Mortality factor 4-like protein 1 (Homo sapiens), Q9UBU8-2 (parent)
chain: MAPKQDPKPKFQEGERVLCFHGPLLYEAKCVKVAIKDKQVKYFIHYSGWNKNWDEWVPESRVLKYVDTNLQKQRELQKANQEQYAEGKMRGAAPGKKTSGLQQKNVEVKTKKNKQKTPGNGDGGSTSETPQPPRKKRARVDPTVENEETFMNRVEVKVKIPEELKPWLVDDWDLITRQKQLFYLPAKKNVDSILEDYANYKKSRGNTDNKEYAVNEVVAGIKEYFNVMLGTQLLYKFERPQYAEILADHPDAPMSQVYGAPHLLRLFVRIGAMLAYTPLDEKSLALLLNYLHDFLKYLAKNSATLFSASDYEVAPPEYHRKAV

Variants of: B1
Conditions: with mrgbp_human MRGBP

Variant | effect of a mutation on the interaction
W172A | decreasing interaction strength
L287A | decreasing interaction strength
L168A | decreasing interaction strength
